Entries after “also recorded” stand apart in the source; their conditions may differ.
Tests used:
[1] = tested on: wild type (C57Bl/6J) mice; experiment: Toxicity on normal hematopoiesis in wild type mice; format: in vivo; conditions: 50 mpk twice a week for two weeks
Protocol: (§1) FIG. 20A-20B. WT mice were treated with 50 mpk twice weekly of Parsatuzumab (@EGFL7) or IgG1 control. FIG. 20A. CBCs from mice harvested after treatment. FIG. 20B. Percent engraftment of treated BM (CD45.2+) transplanted into BoyJ recipient mice (CD45.1).
(§2) To assess the toxicity of Parsatuzumab on normal hematopoiesis, wild type (C57Bl/6J) mice were treated with Parsatuzumab (n=4) and IgG1 control (n=4) with the highest dose previously tested at 50 mpk twice a week for two weeks. Parsatuzumab targets both human and mouse EGFL7 protein. After two weeks of treatment, blood, spleen and BM were harvested and full phenotypic characterization was performed to assess toxicity. […] Full immunophenotypic examination of BM populations was also performed (data not shown due to space constraints). […] To functionally test the effect of Parsatuzumab on normal HSPCs, competitive repopulation BM transplantation (BMT) assays and CFU assays were performed. For competitive BMT, 2×10^6 WBM was harvested from Parsatuzumab and IgG1 treated mice (CD45.2) with 2×10^6 BoyJ (CD45.1) WBM and transplanted into lethally irradiated BoyJ recipients.

[2] = tested on: BoyJ recipient mice; experiment: Competitive repopulation BM transplantation of treated BM; format: in vivo; conditions: three weeks post-BMT, BM of treated mice vs IgG1 control
Protocol: as §1, §2

[3] = tested on: HEY1 mRNA; experiment: HEY1 mRNA qRT-PCR in primary AML blasts; format: cell-based, human; conditions: 100 μg/ml, 2 and 10 h, vs IgG
Protocol: FIG. 26. Blocking EGFL7 increases the NOTCH downstream target, HEY1, in human AML patient blasts (A) Primary blasts from AML patients were cultured in SFEM medium with 10% FBS in the absence or presence of 100 μg/ml of IgG or anti-human EGFL7 antibody for 2 and 10 h. Total RNAs were extracted for qRT-PCR analysis of HEY1 mRNA with β-ACTIN as internal control. *p<0.05, ***p<0.001 vs IgG; ns=not significant.
Total RNA was extracted using Trizol reagent (Invitrogen, Carlsbad, Calif., USA). cDNA was synthesized using SuperScript III reagents (Invitrogen) according to the manufacturer's instruction. Quantitative Real-Time RT-PCR was performed using commercially available TaqMan Gene Expression Assay primers and the 7900HT Fast Real-Time PCR System (Applied Biosystems, Foster City, Calif., USA). The expression levels of target genes were normalized to β-ACTIN. Relative expression was calculated by using the comparative 2^−ΔΔct method.

[4] = tested on: PARP1 and CASP3 cleavage; experiment: PARP1 and Casp3 cleavage immunoblot, THP-1; format: cell-based, human; conditions: anti-EGFL7 treatment, western blots
Protocol: FIG. 24A-24G. EGFL7 prevents activation of NOTCH signaling in AML cells. (FIG. 24A) Overview of experiments using DLL4-FC and IgG-FC control coated plates to induce NOTCH activation. (FIG. 24B) THP-1 cells were pre-treated with 10 μM γ-secretase inhibitor (AVA), 100 μg/ml anti-EGFL7 antibody or 0.25 μM rEGFL7 for 30 min, then transferred to IgG-Fc or DLL4-Fc coated plates. After 4 h of incubation total RNA from THP-1 cells was extracted for qRT-PCR analysis of HES1 with β-ACTIN as internal control. ^###P<0.001 DLL4-FC vs IgG-FC; ***P<0.001 DLL4+AVA, DLL4+rEGFL7, and DLL4+anti-EGFL7 vs DLL4-FC. […] THP-1 cells were treated with the indicated concentration of anti-EGFL7 (@E7) then assessed for apoptosis using (FIG. 24D) AnnexinV+ staining and FACS; *P<0.05 (FIG. 24E) Immuno-blotting for PARP1 and Casp3 cleavage. (FIG. 24F) Cell differentiation was assessed by CD11B and CD14 staining 96-hours post anti-EGFL7 treatments; *P<0.05. (FIG. 24G) To determine whether activation of NOTCH by DLL4-Fc could be accentuated by anti-EGFL7 treatment, THP-1 cells were first treated with anti-EGFL7 (100 μg/ml) and then cultured on DLL4-FC or IgG-Fc coated plates and then assessed for apoptosis using AnnexinV+ staining and FACS. *P<0.05 DLL4-Fc and anti-EGFL7; vs DLL4-FC+anti-EGFL7. […]

B1: Parsatuzumab: Anti-human EGFL7 therapeutic antibody (Parsatuzumab) obtained from Creative Biolabs; blocking monoclonal antibody (antibody, chains of the INN, looked up, V domains shown)
VH: EVQLVESGGGLVQPGGSLRLSCAASGYTFIDYYMNWVRQAPGKGLEWVGDINLDNSGTHYNQKFKGRFTISRDKSKNTAYLQMNSLRAEDTAVYYCAREGVYHDYDDYAMDYWGQGTLVTVSS
VL: DIQMTQSPSSLSASVGDRVTITCRTSQSLVHINAITYLHWYQQKPGKAPKLLIYRVSNRFSGVPSRFSGSGSGTDFTLTISSLQPEDFATYYCGQSTHVPLTFGQGTKVEIK
number of CFUs and types of colonies from treated BM ([1]; vs IgG1): no significant changes in the number of CFUs or types of colonies formed | full differential complete blood counts (CBCs) ([1]; vs IgG1 control): No significant changes | immunophenotypic examination of BM populations ([1]; vs IgG1 control): no significant changes in any hematopoietic stem and/or progenitor populations | donor chimerism / percent engraftment (CD45.1 vs CD45.2) [2]: no significant differences; also recorded: No significant changes | HEY1 mRNA [3]: increases were also observed | PARP1 and CASP3 cleavage [4]: increase in PARP1 and CASP3 cleavage

Reference: patent US11702469B2, “Recombinant EGFL7, EGFL7 antibodies, and uses thereof” (Ohio State Innovation Foundation, priority 2017, dated 2023)
